According to the DeepSol protein solubility set:

Assay: soluble on expression in E. coli; label from the status in PepcDB or PDB records

Sequence	soluble on expression in E. coli
MAFIGRDDDLKQLQECFTERRAQLVFVYGRRRVGKTETLIQLAKDKETLFFAAQNATKDEQLASFSRLMFEAGAPGKDYLSQYPSWERALTELTRLPEPSDGGRRLVIFDEFPYLVKSDPSLPSVLQNLWDHTLRHANLMIVICGSAMSFIEKELLGEKSPLYGRATGILKMLPMPYWDAAQFFPNYSGEDKALAYAILGGIPRYLEEFDPDETIDANVKRHILRRIAPLYSEVEFLLHEELRETAKYNSVIRAIALGATSLNEIATHTMMANATVSSYLANLMELGIVEREFPVTAKPKERAKGSRGLYQLSDNFFRFWYSFVFPYRSELERGDVEGVYERHIKPVLHDFAGKPFEGLCREWMWRESAAGRLPFRARAVGRWWDRQDEIDVMAVDNASDAAIVGECKFRNAPVDRSVLNLLRDRAARTGIGQRTYLLFSLGGFDQSLVDDAAASQSDVQLVGIDELFHELEHHHHHH	not soluble
MRYLPIFVFLGSFGYTETTLTKELIKDAAEKCCTRNRQECCIEIMKFGTPIRCGYDRDPKLPGYVYKCLQNVLFAKEPKKKINLDDSVCCSVFGNDQNDSGRRCENRCKNLMTSPSIDAATRLDSIKSCSLLDNVLYKCFEKCRSLRKDGIKIEVLQFEEYCNATFIQKRTFRGV	not soluble
MDWEERENPKRLVKTFAFPNFREALDFANRVGALAERENHHPRLTVEWGRVTVEWWTHSAGGVTEKDREMARLTDALLQR	soluble
MGSDKIHHHHHHMSLSYLQTSLDRIDAAARDDVIEICINPDGSCWGEFQGDHFMRKLDQALTATEVKDLGNQIASSANTTMSKDRPIVSVSITYKGRPIRAQVITPPAVLSAMSISLRFFSSLPLDGIALDFLYGKERKLEKLRLKKTRELREVVAAGVIDDALAFCVDNKLNMIVSGGTSTGKTVAARKILSHVPADERIVTIEEAAELLPTQPNAVTLIANRDAEFQTADVLLTATLRMRPDRIILGEVRGKEAMTFLEAINTGHGGSMTTLHAETPQLAVQRLAIAALKTEIPMTYADMIQYIENSIDVIIQAGRHDGRRGITEFYLPGATEIGVSQ	not soluble
MDDATKSSLKAIPLCKTKASPRDGDLWIERLKEEYEAIIAAVQNNKDCDRDWFQLESNERGTKWFGKCWYFHNMVKYEFDVEFDIPITYPVTAPEIALPELDGKTAKMYRGGKICLSEHFKPLWARNTPKFGIAHAFALGLGPWMAVEIPDLIEKGLIQPKA	not soluble
MGSDKIHHHHHHMRAIAIVLARSSSKRIKNKNIIDFFNKPMLAYPIEVALNSKLFEKVFISSDSMEYVNLAKNYGASFLNLRPKILADDRATTLEVMAYHMEELELKDEDIACCLYGASALLQEKHLKNAFETLNKNQNTDYVFTCSPFSASPYRSFSLENGVQMAFKEHSNTRTQDLKTLYHDAGLLYMGKAQAFKEMRPIFSQNSIALELSPLEVQDIAHFRRFRISQAQIQPFEKRMPVKILCDCFLTSGLGHVRRCEKILSFIEKLGVEASLYLHKQNNISAFLEGVGGNDFLITDSYCLNSKDFYLLKEKAKSLMVIEDTEHAKGFYPKNTKILNFTLNALKHYHHLSKDYQYYLGVGFYPVDARFIYDRPINTENKEVLITLGGSEQKTLKEIVKILENKNVNLHIISPYTPKNPPKNTHYYSPLNPLEFSSLMKSCACAISAAGQTLYELALSQTPSLILPIASNQIIQSKEFESLGIFKQTSLKTLAKDFENLQIQKNQAWAKNLVFGDKLEGALREFLEI	not soluble
MFRPILILTILSCVLAYHQYRELKCSTPTNSIRGGPDRAECHLVLKAEELETGRPVPTGLGCWQEDHDGEEREYCDIVCPKSHTVFISYIDQGHRACFNFITYQVEKRNDEHVLWRSGKCLNSTVNYRIGCKFDDPFETQFKSDNEIFAHLRARARRV	not soluble
MLAGHTLIESKNDHQSRRNCEFRRAIAAAGRCRRVYGGALPLLASSVPMSVRMDTRHRQKQALAQTAATMIEPGEFIFLDSGSTNLALIDFLPKGYDLTLATNSIDIAGAALRGQDLKLIMLGGTVDLAVGGCVDATAIGSLAQMNIDRSFIGVCSVSPTFGLSAFDIADATFKRALVAASGYTIALATTDKLEVRAPHRVSEINEIDCLVLEHDAPISHLDDLVRAGASIVKALQPFAAALEHHHHHH	not soluble
MLERRDKEITDLKRRVANMVVVGKISHVDHKNARYRVKTGNLVSDWIPDTQARAGKTRSYEGRDVGEQVVVVSSSGDLSQGVIVGSIHTDANQAADKGNLHKTLYPDGTTIEYDDEQNSYALHLTSGGKFSLTISDGVSIKGDGKKLELQAAEGIKIISQGDLSLSAEKNIALKAGGSVSLHSDDGIALHSSEGVSIHSSDLKHNGTNIGNSHVHGGVSPGGSMTGGPN	soluble
